The record followed here is paper PMC3177862, “Characterization of the Biosynthesis, Processing and Kinetic Mechanism of Action of the Enzyme Deficient in Mucopolysaccharidosis IIIC” (PLoS ONE, 2011).

Substrate in series [1]: CC(=O)SCCNC(=O)CCNC(=O)[C@H](O)C(C)(C)COP(=O)(O)OP(=O)(O)OC[C@H]1O[C@@H](n2cnc3c(N)ncnc32)[C@H](O)[C@@H]1OP(=O)(O)O
In words: coupled fluorescence assay with beta-hexosaminidase (4-methylumbelliferone release), Michaelis-Menten fit. The format is biochemical, Homo sapiens. The conditions noted are these: MU-GlcNH2 fixed at 1 mM, CP buffer pH 5.5, 37 °C, liposomes with 20% PI, random sequential ternary-complex mechanism. From the text:
(§1) coupled fluorescence assay with beta-hexosaminidase (4-methylumbelliferone release), Michaelis-Menten fit on N-acetyltransferase-His8Flag (heparin acetyl-CoA:alpha-glucosaminide N-acetyltransferase)

Substrate in series [2]: Cc1cc(=O)oc2cc(O[C@@H]3O[C@H](CO)[C@@H](O)[C@H](O)[C@H]3N)ccc12
The series is described as above. The format is biochemical, Homo sapiens. As to conditions: acetyl-CoA fixed at 2 mM, CP buffer pH 5.5, 37 °C, liposomes with 20% PI, random sequential ternary-complex mechanism.
From the text: as §1

B1: N-acetyltransferase-His8Flag (heparin acetyl-CoA:alpha-glucosaminide N-acetyltransferase) (Homo sapiens) (protein)
chain: RDAQAAPPRDLDKKRHAELKMDQALLLIHNELLWTNLTVYWKSECCYHCLFQVLVNVPQSPKAGKPSAAAASVSTQHGSILQLNDTLEEKEVCRLEYRFGEFGNYSLLVKNIHNGVSEIACDLAVNEDPVDSNLPVSIAFLIGLAVIIVISFLRLLLSLDDFNNWISKAISSRETDRLINSELGSPSRTDPLDGDVQPATWRLSALPPRLRSVDTFRGIALILMVFVNYGGGKYWYFKHASWNGLTVADLVFPWFVFIMGSSIFLSMTSILQRGCSKFRLLGKIAWRSFLLICIGIIIVNPNYCLGPLSWDKVRIPGVLQRLGVTYFVVAVLELLFAKPVPEHCASERSCLSLRDITSSWPQWLLILVLEGLWLGLTFLLPVPGCPTGYLGPGGIGDFGKYPNCTGGAAGYIDRLLLGDDHLYQHPSSAVLYHTEVAYDPEGILGTINSIVMAFLGVQAGKILLYYKARTKDILIRFTAWCCILGLISVALTKVSENEGFIPVNKNLWSLSYVTTLSSFAFFILLVLYPVVDVKGLWTGTPFFYPGMNSILVYVGHEVFENYFPFQWKLKDNQSHKEHLTQNIVATALWVLIAYILYRKKIFWKI
notes: full length 635 aa with C-terminal His8-Flag tag kept; stably expressed in HeLa cells, DDM extract, anti-Flag purified; signal peptide cleaved; mix of 62 kDa precursor and processed alpha (Lys43-Asn144, N-terminus KKRHAE) and beta (Gly145-Ile635, N-terminus GVSEIA) chains; native about 80 kDa, monomer
On to B1, for which, in series [1], the Michaelis constant (Km) (usually the substrate concentration at which the rate is half of its maximum) worked out at 500 ± 20 µM; the Vmax (usually the top rate of the reaction or transport when substrate is in excess) stood at 6.33 µmol/min/mg; the kcat (in general, the maximal rate divided by the concentration of active sites) came to 7.33 ± 0.1 s⁻¹. In addition, in series [2], the Km amounted to 450 ± 90 µM, the Vmax was determined as 9 µmol/min/mg and the kcat is 10.4 ± 1.14 s⁻¹.
